T1: Rat ROBO2 on cells (rat, UniProt Q7TPD3 22-1469 (mouse entry))
T1 construct: overexpressed on HEK293 cells in flow cytometry; endogenous on rat SVZ neuronal explants in the SVZa assay
T1 chain: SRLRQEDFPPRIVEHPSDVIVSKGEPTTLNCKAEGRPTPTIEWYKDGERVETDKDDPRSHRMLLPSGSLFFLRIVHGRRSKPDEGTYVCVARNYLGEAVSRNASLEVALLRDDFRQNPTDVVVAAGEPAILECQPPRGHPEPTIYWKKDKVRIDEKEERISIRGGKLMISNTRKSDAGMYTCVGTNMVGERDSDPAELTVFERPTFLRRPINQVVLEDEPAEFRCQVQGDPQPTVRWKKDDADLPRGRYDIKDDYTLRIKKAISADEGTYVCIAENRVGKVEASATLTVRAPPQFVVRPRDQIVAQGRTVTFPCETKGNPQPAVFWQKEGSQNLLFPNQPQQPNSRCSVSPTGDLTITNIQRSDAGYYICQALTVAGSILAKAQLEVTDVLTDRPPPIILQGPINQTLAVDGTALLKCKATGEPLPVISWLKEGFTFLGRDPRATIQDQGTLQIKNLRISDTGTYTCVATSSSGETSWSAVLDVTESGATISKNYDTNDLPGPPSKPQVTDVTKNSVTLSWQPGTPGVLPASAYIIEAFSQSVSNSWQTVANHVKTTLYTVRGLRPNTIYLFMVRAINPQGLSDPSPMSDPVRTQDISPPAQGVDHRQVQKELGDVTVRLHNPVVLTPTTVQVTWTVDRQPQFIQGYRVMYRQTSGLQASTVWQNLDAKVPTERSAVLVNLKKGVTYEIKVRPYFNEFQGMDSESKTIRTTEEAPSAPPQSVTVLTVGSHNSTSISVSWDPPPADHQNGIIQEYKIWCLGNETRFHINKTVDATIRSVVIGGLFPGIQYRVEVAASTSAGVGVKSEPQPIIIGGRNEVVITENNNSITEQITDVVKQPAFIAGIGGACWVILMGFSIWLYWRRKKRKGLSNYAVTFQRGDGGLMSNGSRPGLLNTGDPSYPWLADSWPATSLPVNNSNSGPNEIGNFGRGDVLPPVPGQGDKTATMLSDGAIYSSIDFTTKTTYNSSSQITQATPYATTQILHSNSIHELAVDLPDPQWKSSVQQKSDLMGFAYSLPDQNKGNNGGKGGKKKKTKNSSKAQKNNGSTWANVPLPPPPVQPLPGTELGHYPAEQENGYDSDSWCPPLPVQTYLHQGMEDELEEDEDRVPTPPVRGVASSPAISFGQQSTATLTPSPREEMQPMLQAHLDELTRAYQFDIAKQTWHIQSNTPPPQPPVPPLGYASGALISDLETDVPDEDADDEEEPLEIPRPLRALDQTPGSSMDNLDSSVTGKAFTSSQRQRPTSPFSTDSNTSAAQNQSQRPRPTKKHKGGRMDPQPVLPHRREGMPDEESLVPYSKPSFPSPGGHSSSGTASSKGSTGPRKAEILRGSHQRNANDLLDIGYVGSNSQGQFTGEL


Target: T1, Rat ROBO2 on cells
Test: flow cytometry, HEK293 cells
Protocol: Using flow cytometry, improvement in the binding EC₅₀ to human ROBO2 relative to the parental 93H2 was evaluated. Starting at 6.7 nM, 11-point, 3-fold dilution series were made for each antibody and used to stain HEK293 overexpressing human ROBO2 as described above for the ROBO2 fold selectivity (Example 2). […] In addition to measuring improved binding to human ROBO2, it was important to ensure that high affinity binding to both cynomolgus monkey ROBO2 and rat ROBO2 was maintained. Using HEK293 cells overexpressing either cynomolgus monkey ROBO2 or rat ROBO2, the relative dose-dependent binding of 93H2, Abcs25 and Abcs35 was evaluated as described above. High affinity binding to both cynomolgus monkey and rat ROBO2 was maintained in Abcs25 and Abcs35 (Table 4). […] Briefly, Abcs35 was immobilized to 300 resonance units (RU) on a CM5 chip. Association of ROBO2 Ig1-Ig2-His (ROBO2) was measured over 5 minutes and dissociation was followed for a period of 10 minutes.
The binding profile of Abcs35-J compared to Abcs35 was determined for human ROBO2, orthologs from cynomolgus monkey and rat, human ROBO1 and specificity for the RSK epitope from ROBO2 but not KSR from ROBO1. Binding was assessed by flow cytometry as described in Examples 2 (homolog specificity), Example 3 (ortholog reactivity) and Example 5 (RSK vs KSR epitope specificity). […] Binding of the antibodies was detected using a secondary fluorochrome conjugated anti-human IgG F(ab′)₂ antibody and samples analyzed on a Fortessa cytometer (BD Biosciences).

Row | Binder | EC50 [nM]
1 | Abcs35 (antibody, human IgG1, kappa, fully human IgG1; VH of Ab96 with VL of Ab123) heavy: EVQLVQSGAEVKKPGASVKVSCKASGYTFTGYYMHWVRQAPGQGLEWMGWINPKNGDTEFPQKFQGRVTMTRDTSITTAYMDLSRLRSDDTAVYYCARESGDDAFDIWGQGTMVTVSSASTKGPSVFPLAPSSKSTSGGTAALGCLVKDYFPEPVTVSWNSGALTSGVHTFPAVLQSSGLYSLSSVVTVPSSSLGTQTYICNVNHKPSNTKVDKKVEPKSCDKTHTCPPCPAPEAAGAPSVFLFPPKPKDTLMISRTPEVTCVVVDVSHEDPEVKFNWYVDGVEVHNAKTKPREEQYNSTYRVVSVLTVLHQDWLNGKEYKCKVSNKALPAPIEKTISKAKGQPREPQVYTLPPSREEMTKNQVSLTCLVKGFYPSDIAVEWESNGQPENNYKTTPPVLDSDGSFFLYSKLTVDKSRWQQGNVFSCSVMHEALHNHYTQKSLSLSPGK light: DIVMTQSPSSLSASVGDRVTITCRASQSISSYLNWYQQKPGKAPKLLIYAASSLQSGVPSRFSGSGSGTDFTLTISSLQPEDFATYYCQQSVGLFFGGGTKVEIKRTVAAPSVFIFPPSDEQLKSGTASVVCLLNNFYPREAKVQWKVDNALQSGNSQESVTEQDSKDSTYSLSSTLTLSKADYEKHKVYACEVTHQGLSSPVTKSFNRGEC | 0.026
2 | Abcs35-J (antibody, human IgG1, kappa, germlined variant of Abcs35; also called ABCS-J) heavy: EVQLVQSGAEVKKPGASVKVSCKASGYTFTGYYMHWVRQAPGQGLEWMGWINPKNGDTEFPQKFQGRVTMTRDTSITTAYMELSRLRSDDTAVYYCARESGDDAFDIWGQGTMVTVSSASTKGPSVFPLAPSSKSTSGGTAALGCLVKDYFPEPVTVSWNSGALTSGVHTFPAVLQSSGLYSLSSVVTVPSSSLGTQTYICNVNHKPSNTKVDKKVEPKSCDKTHTCPPCPAPEAAGAPSVFLFPPKPKDTLMISRTPEVTCVVVDVSHEDPEVKFNWYVDGVEVHNAKTKPREEQYNSTYRVVSVLTVLHQDWLNGKEYKCKVSNKALPAPIEKTISKAKGQPREPQVYTLPPSREEMTKNQVSLTCLVKGFYPSDIAVEWESNGQPENNYKTTPPVLDSDGSFFLYSKLTVDKSRWQQGNVFSCSVMHEALHNHYTQKSLSLSPGK light: not shown | 0.026

Reference: patent publication US20200157212A1 (Pfizer, published 2020)
